The supplement of paper PMC9112550, “Optimization of the antimicrobial peptide Bac7 by deep mutational scanning” (BMC Biology, 2022)

System: Escherichia coli TOP10
Assay: shrunken log2 fold change of peptide-encoding DNA abundance (4.5 h post-induction vs induction); higher = less antimicrobial activity (less host growth inhibition)
Conditions: time post-induction: 4.5 h; library: site-saturation at positions 5, 18, 19, 20
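Further: peptides expressed intracellularly from a pBAD plasmid library in pooled LB shake-flask culture, induced with 0.3% L-arabinose, DNA abundance read by NGS, three biological replicates, DESeq2 with apeglm shrinkage.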

Row | Sequence | shrunken log2 fold change
1 | RRIRFRPPRLPRPRPRPTCNPRP | -0.178
2 | RRIRHRPPRLPRPRPRPESFPRP | -0.0018
3 | RRIRTRPPRLPRPRPRPGHVPRP | -0.144
4 | RRIRRRPPRLPRPRPRPIMGPRP | -0.267
5 | RRIRQRPPRLPRPRPRPAFTPRP | -0.00944
6 | RRIRVRPPRLPRPRPRPEEWPRP | 0.015
7 | RRIRWRPPRLPRPRPRPHTDPRP | -0.283
8 | RRIRARPPRLPRPRPRPCPNPRP | -0.0809
9 | RRIRQRPPRLPRPRPRPTCMPRP | -0.163
10 | RRIRNRPPRLPRPRPRPHQSPRP | -0.104
11 | RRIRCRPPRLPRPRPRPKAFPRP | -0.0921
12 | RRIRLRPPRLPRPRPRPTFVPRP | -0.162
13 | RRIRLRPPRLPRPRPRPGKKPRP | 0.0971
14 | RRIRYRPPRLPRPRPRPMRTPRP | 0.176
15 | RRIRFRPPRLPRPRPRPPMYPRP | -0.395
16 | RRIRCRPPRLPRPRPRPSINPRP | -0.86
17 | RRIRDRPPRLPRPRPRPPILPRP | -0.147
18 | RRIRGRPPRLPRPRPRPHIAPRP | 2.17
19 | RRIRMRPPRLPRPRPRPPMYPRP | -0.0977
20 | RRIRTRPPRLPRPRPRPHHDPRP | -0.469

Row | Sequence | shrunken log2 fold change
21 | RRIRARPPRLPRPRPRPFPCPRP | 0.0215
22 | RRIRQRPPRLPRPRPRPVQDPRP | -0.0297
23 | RRIRLRPPRLPRPRPRPFDNPRP | -0.0289
24 | RRIRERPPRLPRPRPRPGSAPRP | 0.151
25 | RRIRSRPPRLPRPRPRPKPCPRP | 0.122
26 | RRIRPRPPRLPRPRPRPFNEPRP | -0.347
27 | RRIRWRPPRLPRPRPRPVVRPRP | 0.405
28 | RRIRRRPPRLPRPRPRPEGGPRP | 0.103
29 | RRIRKRPPRLPRPRPRPEPLPRP | 0.636
30 | RRIRPRPPRLPRPRPRPRGKPRP | -0.0806
31 | RRIRTRPPRLPRPRPRPNKSPRP | -0.315
32 | RRIRLRPPRLPRPRPRPGYNPRP | -0.774
33 | RRIRHRPPRLPRPRPRPTHGPRP | 0.125
34 | RRIRWRPPRLPRPRPRPKQVPRP | 0.285
35 | RRIRIRPPRLPRPRPRPWFDPRP | -0.184
36 | RRIRERPPRLPRPRPRPFLFPRP | -0.286
37 | RRIRCRPPRLPRPRPRPWHPPRP | -0.0323
38 | RRIRWRPPRLPRPRPRPWWIPRP | 0.109
39 | RRIRYRPPRLPRPRPRPYVIPRP | -1.19
40 | RRIRMRPPRLPRPRPRPAIEPRP | 0.112

Row | Sequence | shrunken log2 fold change
41 | RRIRHRPPRLPRPRPRPAVFPRP | -0.0167
42 | RRIRSRPPRLPRPRPRPWKCPRP | -0.0598
43 | RRIRPRPPRLPRPRPRPAEAPRP | 0.103
44 | RRIRSRPPRLPRPRPRPVKIPRP | -0.131
45 | RRIRWRPPRLPRPRPRPRNWPRP | 0.172
46 | RRIRRRPPRLPRPRPRPGDEPRP | -0.0622
47 | RRIRGRPPRLPRPRPRPDIKPRP | 0.547
48 | RRIRCRPPRLPRPRPRPDHWPRP | -0.109
49 | RRIRKRPPRLPRPRPRPKLDPRP | 0.707
50 | RRIRSRPPRLPRPRPRPFCKPRP | -0.449
51 | RRIRSRPPRLPRPRPRPMANPRP | -0.397
52 | RRIRMRPPRLPRPRPRPGQLPRP | 0.0406
53 | RRIRFRPPRLPRPRPRPDHWPRP | -0.00426
54 | RRIRARPPRLPRPRPRPAPEPRP | 0.777
55 | RRIRNRPPRLPRPRPRPDWTPRP | -0.0129
56 | RRIRLRPPRLPRPRPRPWHAPRP | -0.194
57 | RRIRCRPPRLPRPRPRPSQSPRP | -0.221
58 | RRIRVRPPRLPRPRPRPNNFPRP | 1.9
59 | RRIRVRPPRLPRPRPRPWVHPRP | -0.306
60 | RRIRKRPPRLPRPRPRPFCKPRP | 0.326
